Positions count from the first letter of the chain named. Numbers in names are those of the source.
B1: Y150-F8-8 (bispecific antibody, human IgG1, kappa)
scFv: QVQLVESGGGVVQPGRSLRLSCAASGFTFSTYAMNWVRQAPGKGLEWVARIRSKYNNYATYYADSVKDRFTISRDDSKNTLYLQMNSLRAEDTAVYYCARHGNFGNSYVSWFAYWGQGTLVTVSSGGGGSGGGGSGGGGSQTVVTQEPSLTVSPGGTVTLTCRSSTGAVTTSNYANWVQQKPGQAPRGLIGGTNKRAPGVPARFSGSLLGGKAALTLSGVQPEDEAEYYCALWYSNLWVFGGGTKVEIKGRGRGSDKTHTCPPSPAPPVAGPSVFLFPPKPKDTLMISRTPEVTCVVVDVSHEDPEVQFNWYVDGVEVHNAKTKPREEQFNSTFRVVSVLTVVHQDWLNGKEYKCKVSNKGLPAPIEKTISKTKGQPREPQVCTLPPSRDELTKNQVSLSCAVKGFYPSDIAVEWESNGQPENNYKTTPPVLDSDGSFFLVSKLTVDKSRWQQGNVFSCSVMHEALHNHYTQKSLSLSPGK
heavy: EVQLLESGGGLVQPGGSLRLSCAVSGFTFNSFAMSWVRQAPGKGLEWVSAISGSGGGTYYADSVKGRFTISRDNSKNTLYLQMNSLRAEDTAVYFCAKDKILWFGEPVFDYWGQGTLVTVSSASTKGPSVFPLAPSSKSTSGGTAALGCLVKDYFPEPVTVSWNSGALTSGVHTFPAVLQSSGLYSLSSVVTVPSSSLGTQTYICNVNHKPSNTKVDKKVEPKSCDKTHTCPPSPAPPVAGPSVFLFPPKPKDTLMISRTPEVTCVVVDVSHEDPEVQFNWYVDGVEVHNAKTKPREEQFNSTFRVVSVLTVVHQDWLNGKEYKCKVSNKGLPAPIEKTISKTKGQPREPQVYTLPPCRDELTKNQVSLWCLVKGFYPSDIAVEWESNGQPENNYKTTPPVLDSDGSFFLYSKLTVDKSRWQQGNVFSCSVMHEALHNHYTQKSLSLSPGK
light: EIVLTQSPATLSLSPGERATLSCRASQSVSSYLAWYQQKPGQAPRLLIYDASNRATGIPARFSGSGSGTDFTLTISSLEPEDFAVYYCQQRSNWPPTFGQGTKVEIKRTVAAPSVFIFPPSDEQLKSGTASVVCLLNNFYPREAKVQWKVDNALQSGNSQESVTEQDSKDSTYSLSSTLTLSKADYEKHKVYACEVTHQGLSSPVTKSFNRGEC
notes: Anti-CD38 (Dara) Fab arm and anti-CD3 scFv (VH2a/VL5)-Fc fusion peptide, CH2 SG2
B2: CT-F3 (bispecific antibody, human IgG1, kappa)
scFv: EVQLVESGGGLVQPGGSLRLSCAASGFTFSTYAMNWVRQAPGKGLEWVARIRSKYNNYATYYADSVKDRFTISRDDSKNTLYLQMNSLRAEDTAVYYCARHGNFGNSYVSWFAYWGQGTMVTVSSGGGGSGGGGSGGGGSQAVVTQEPSLTVSPGGTVTLTCGSSTGAVTTSNYANWVQQKPGQAPRGLIGGTNKRAPGVPARFSGSLLGGKAALTLSGAQPEDEAEYYCALWYSNLWVFGGGTKLEIKGGGGSDKTHTCPPCPAPEFEGGPSVFLFPPKPKDTLMISRTPEVTCVVVDVSHEDPEVKFNWYVDGVEVHNAKTKPREEQYNSTYRVVSVLTVLHQDWLNGKEYKCKVSNKALPASIEKTISKAKGQPREPQVCTLPPSRDELTKNQVSLSCAVKGFYPSDIAVEWESNGQPENNYKTTPPVLDSDGSFFLVSKLTVDKSRWQQGNVFSCSVMHEALHNHYTQKSLSLSPGK
heavy: EVQLLESGGGLVQPGGSLRLSCAVSGFTFNSFAMSWVRQAPGKGLEWVSAISGSGGGTYYADSVKGRFTISRDNSKNTLYLQMNSLRAEDTAVYFCAKDKILWFGEPVFDYWGQGTLVTVSSASTKGPSVFPLAPSSKSTSGGTAALGCLVKDYFPEPVTVSWNSGALTSGVHTFPAVLQSSGLYSLSSVVTVPSSSLGTQTYICNVNHKPSNTKVDKKVEPKSCDKTHTCPPCPAPEFEGGPSVFLFPPKPKDTLMISRTPEVTCVVVDVSHEDPEVKFNWYVDGVEVHNAKTKPREEQYNSTYRVVSVLTVLHQDWLNGKEYKCKVSNKALPASIEKTISKAKGQPREPQVYTLPPCRDELTKNQVSLWCLVKGFYPSDIAVEWESNGQPENNYKTTPPVLDSDGSFFLYSKLTVDKSRWQQGNVFSCSVMHEALHNHYTQKSLSLSPGK
light: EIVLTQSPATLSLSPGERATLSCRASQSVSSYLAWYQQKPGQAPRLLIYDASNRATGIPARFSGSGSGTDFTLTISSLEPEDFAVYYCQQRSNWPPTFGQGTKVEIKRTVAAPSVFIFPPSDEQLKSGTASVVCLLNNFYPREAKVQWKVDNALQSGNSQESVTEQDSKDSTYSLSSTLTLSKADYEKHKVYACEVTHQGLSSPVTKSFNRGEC
notes: Comparative: anti-CD38 (Dara) Fab arm and anti-CD3 scFv (CD3 antibody 1 VH, CD3 antibody 2 VL)-Fc fusion peptide
B3: IC-6 (bispecific antibody, human IgG1, kappa)
scFv: B2 scFv
heavy: EVKLDETGGGLVQPGRPMKLSCVASGFTFSDYWMNWVRQSPEKGLEWVAQIRNKPYNYETYYSDSVKGRFTISRDDSKSSVYLQMNNLRVEDMGIYYCTGSYYGMDYWGQGTSVTVSSASTKGPSVFPLAPSSKSTSGGTAALGCLVKDYFPEPVTVSWNSGALTSGVHTFPAVLQSSGLYSLSSVVTVPSSSLGTQTYICNVNHKPSNTKVDKKVEPKSCDKTHTCPPCPAPEFEGGPSVFLFPPKPKDTLMISRTPEVTCVVVDVSHEDPEVKFNWYVDGVEVHNAKTKPREEQYNSTYRVVSVLTVLHQDWLNGKEYKCKVSNKALPASIEKTISKAKGQPREPQVYTLPPCRDELTKNQVSLWCLVKGFYPSDIAVEWESNGQPENNYKTTPPVLDSDGSFFLYSKLTVDKSRWQQGNVFSCSVMHEALHNHYTQKSLSLSPGK
light: DVVMTQTPLSLPVSLGDQASISCRSSQSLVHSNGNTYLRWYLQKPGQSPKVLIYKVSNRFSGVPDRFSGSGSGTDFTLKISRVEAEDLGVYFCSQSTHVPWTFGGGTKLEIKRTVAAPSVFIFPPSDEQLKSGTASVVCLLNNFYPREAKVQWKVDNALQSGNSQESVTEQDSKDSTYSLSSTLTLSKADYEKHKVYACEVTHQGLSSPVTKSFNRGEC
notes: Comparative: 4420 Fab arm and anti-CD3 scFv (CD3 antibody 1 VH, CD3 antibody 2 VL)-Fc fusion peptide
B4: Y150-F8-1 (bispecific antibody, human IgG1, kappa)
scFv: EVQLVESGGGLVQPKGSLKLSCAASGFTFNTYAMNWVRQAPGKGLEWVARIRSKYNNYATYYADSVKDRFTISRDDSQSILYLQMNNLKTEDTAMYYCVRHGNFGNSYVSWFAYWGQGTLVTVSSGGGGSGGGGSGGGGSQAVVTQESALTTSPGETVTLTCRSSTGAVTTSNYANWVQEKPDHLFTGLIGGTNKRAPGVPARFSGSLIGDKAALTITGAQTEDEAIYFCALWYSNLWVFGGGTKLTVLGDGDGSDKTHTCPPCPAPEFEGGPSVFLFPPKPKDTLMISRTPEVTCVVVDVSHEDPEVKFNWYVDGVEVHNAKTKPREEQYNSTYRVVSVLTVLHQDWLNGKEYKCKVSNKALPASIEKTISKAKGQPREPQVCTLPPSRDELTKNQVSLSCAVKGFYPSDIAVEWESNGQPENNYKTTPPVLDSDGSFFLVSKLTVDKSRWQQGNVFSCSVMHEALHNHYTQKSLSLSPGK
heavy: B2 heavy
light: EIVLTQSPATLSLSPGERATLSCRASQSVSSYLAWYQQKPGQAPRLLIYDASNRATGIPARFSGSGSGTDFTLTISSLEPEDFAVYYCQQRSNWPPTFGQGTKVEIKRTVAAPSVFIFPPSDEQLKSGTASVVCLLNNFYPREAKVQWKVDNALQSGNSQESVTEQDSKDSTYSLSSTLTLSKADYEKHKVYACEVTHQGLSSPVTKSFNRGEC
notes: Comparative: anti-CD38 (Dara) Fab arm and anti-CD3 scFv (SP34)-Fc fusion peptide, CH2 FES
B5: Y150-F8-7 (bispecific antibody, human IgG1, kappa, N297A)
scFv: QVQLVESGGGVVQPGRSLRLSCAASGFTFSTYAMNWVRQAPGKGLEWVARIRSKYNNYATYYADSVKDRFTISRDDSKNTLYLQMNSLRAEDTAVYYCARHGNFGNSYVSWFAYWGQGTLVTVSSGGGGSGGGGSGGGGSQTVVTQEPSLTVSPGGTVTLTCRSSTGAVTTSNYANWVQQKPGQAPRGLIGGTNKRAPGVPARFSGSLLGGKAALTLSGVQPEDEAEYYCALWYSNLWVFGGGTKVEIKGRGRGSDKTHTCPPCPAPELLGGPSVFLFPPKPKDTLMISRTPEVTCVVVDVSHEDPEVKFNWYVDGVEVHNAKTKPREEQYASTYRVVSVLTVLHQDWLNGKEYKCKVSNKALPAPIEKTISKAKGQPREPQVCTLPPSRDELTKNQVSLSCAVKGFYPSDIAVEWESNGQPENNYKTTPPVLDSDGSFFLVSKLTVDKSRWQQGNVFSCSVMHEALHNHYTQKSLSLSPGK
heavy: B2 heavy with F239L, E240L, N302A, S336P
light: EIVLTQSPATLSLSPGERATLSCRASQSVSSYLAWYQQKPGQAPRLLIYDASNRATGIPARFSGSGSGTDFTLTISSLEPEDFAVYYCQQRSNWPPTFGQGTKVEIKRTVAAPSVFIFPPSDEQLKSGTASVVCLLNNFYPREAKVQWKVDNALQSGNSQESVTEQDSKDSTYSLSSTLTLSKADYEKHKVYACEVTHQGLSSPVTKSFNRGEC
notes: Anti-CD38 (Dara) Fab arm and anti-CD3 scFv (VH2a/VL5)-Fc fusion peptide, CH2 N297A
B6: Y150-F8-5 (bispecific antibody, human IgG1, kappa)
scFv: B2 scFv with E1Q, L11V, G16R, M120L, A142T, G163R, A220V, L246V
heavy: B2 heavy
light: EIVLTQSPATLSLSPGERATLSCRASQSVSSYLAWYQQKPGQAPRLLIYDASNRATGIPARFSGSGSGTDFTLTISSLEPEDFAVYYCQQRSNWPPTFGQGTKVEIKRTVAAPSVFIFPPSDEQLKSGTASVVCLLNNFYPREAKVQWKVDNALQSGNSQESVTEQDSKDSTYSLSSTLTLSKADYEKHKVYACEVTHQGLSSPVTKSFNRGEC
notes: also called Y150-8-5
B7: CT-F2 (bispecific antibody, human IgG1, kappa)
scFv: B2 scFv with S30N, A49G, D68G, M120L
heavy: B2 heavy
light: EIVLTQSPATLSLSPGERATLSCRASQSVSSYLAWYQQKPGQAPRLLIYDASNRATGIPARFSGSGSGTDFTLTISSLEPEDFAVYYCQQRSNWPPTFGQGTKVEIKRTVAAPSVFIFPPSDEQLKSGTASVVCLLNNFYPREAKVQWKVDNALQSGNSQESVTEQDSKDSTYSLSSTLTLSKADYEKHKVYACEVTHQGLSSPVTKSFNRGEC
notes: Comparative: anti-CD38 (Dara) Fab arm and anti-CD3 scFv (CD3 antibody 2 VH/VL)-Fc fusion peptide
B8: MS-hCD3-IC16 (bispecific antibody, human IgG1, kappa)
scFv: B2 scFv with E1Q, L11V, G16R, M120L, A142T, G163R, A220V, L246V
heavy: B3 heavy
light: B3 light
notes: 4420 Fab arm and anti-CD3 scFv (VH2a/VL5)-Fc fusion peptide, CH2 FES
B9: IC-4 (bispecific antibody, human IgG1, kappa)
scFv: B2 scFv with G163R, V200T, A220V, E247T, I248V, K249L
heavy: B3 heavy
light: B3 light
notes: Comparative: 4420 Fab arm and anti-CD3 scFv (CD3 antibody 1 VH/VL)-Fc fusion peptide
B10: CT-F1 (bispecific antibody, human IgG1, kappa)
scFv: B2 scFv with G163R, V200T, A220V, E247T, I248V, K249L
heavy: B2 heavy
light: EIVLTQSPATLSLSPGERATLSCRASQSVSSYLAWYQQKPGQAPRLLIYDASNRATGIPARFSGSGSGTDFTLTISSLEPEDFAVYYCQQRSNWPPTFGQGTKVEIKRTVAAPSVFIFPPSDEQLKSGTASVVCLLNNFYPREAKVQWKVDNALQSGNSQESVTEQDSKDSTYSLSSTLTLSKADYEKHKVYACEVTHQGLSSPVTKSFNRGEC
notes: Comparative: anti-CD38 (Dara) Fab arm and anti-CD3 scFv (CD3 antibody 1 VH/VL)-Fc fusion peptide
B11: Y150-F8-2 (bispecific antibody, human IgG1, kappa, N297Q)
scFv: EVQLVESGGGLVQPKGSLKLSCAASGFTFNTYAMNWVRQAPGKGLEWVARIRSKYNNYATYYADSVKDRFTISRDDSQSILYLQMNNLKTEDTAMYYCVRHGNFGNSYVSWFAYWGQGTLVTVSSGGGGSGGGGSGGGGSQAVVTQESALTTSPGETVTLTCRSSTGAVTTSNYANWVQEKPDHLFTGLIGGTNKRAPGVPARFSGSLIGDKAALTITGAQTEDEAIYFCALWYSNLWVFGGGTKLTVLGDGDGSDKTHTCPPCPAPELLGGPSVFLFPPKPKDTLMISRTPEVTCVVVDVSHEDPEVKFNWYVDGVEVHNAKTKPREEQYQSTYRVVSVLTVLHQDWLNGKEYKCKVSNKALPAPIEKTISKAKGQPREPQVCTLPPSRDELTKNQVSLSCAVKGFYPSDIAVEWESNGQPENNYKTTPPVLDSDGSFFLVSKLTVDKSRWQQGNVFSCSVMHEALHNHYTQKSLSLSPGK
heavy: B2 heavy with F239L, E240L, N302Q, S336P
light: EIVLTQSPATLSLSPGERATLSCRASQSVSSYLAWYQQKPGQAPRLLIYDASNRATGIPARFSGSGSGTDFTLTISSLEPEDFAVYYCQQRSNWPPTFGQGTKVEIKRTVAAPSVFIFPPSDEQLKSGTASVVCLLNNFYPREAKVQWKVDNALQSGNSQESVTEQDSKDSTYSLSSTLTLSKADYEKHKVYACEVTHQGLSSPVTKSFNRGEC
notes: Comparative: anti-CD38 (Dara) Fab arm and anti-CD3 scFv (SP34)-Fc fusion peptide, CH2 N297Q
B12: Y150-F8-6 (bispecific antibody, human IgG1, kappa)
scFv: B2 scFv with E1Q, L11V, G16R, A99V, M120L, A142T, G163R, A220V, L246V
heavy: B2 heavy
light: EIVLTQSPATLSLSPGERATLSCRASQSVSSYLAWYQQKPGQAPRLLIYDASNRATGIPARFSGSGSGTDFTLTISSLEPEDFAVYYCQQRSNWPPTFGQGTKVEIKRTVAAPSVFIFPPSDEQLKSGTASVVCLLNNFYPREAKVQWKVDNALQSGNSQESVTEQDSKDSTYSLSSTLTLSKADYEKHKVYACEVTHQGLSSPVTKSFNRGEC
notes: also called Y150-8-6
B13: IC-5 (bispecific antibody, human IgG1, kappa)
scFv: B2 scFv with S30N, A49G, D68G, M120L
heavy: B3 heavy
light: B3 light
notes: Comparative: 4420 Fab arm and anti-CD3 scFv (CD3 antibody 2 VH/VL)-Fc fusion peptide
B14: MS-hCD3-IC17 (bispecific antibody, human IgG1, kappa)
scFv: QVQLVESGGGVVQPGRSLRLSCAASGFTFSTYAMNWVRQAPGKGLEWVARIRSKYNNYATYYADSVKDRFTISRDDSKNTLYLQMNSLRAEDTAVYYCARHGNFGNSYVSWFAYWGQGTLVTVSSGGGGSGGGGSGGGGSQTVVTQEPSLTVSPGGTVTLTCRSSTGAVTTSNYANWVQQKPGQAPRGLIGGTNKRAPGVPARFSGSLLGGKAALTLSGVQPEDEAEYYCALWYSNLWVFGGGTKVEIKGGGGSDKTHTCPPSPAPPVAGPSVFLFPPKPKDTLMISRTPEVTCVVVDVSHEDPEVQFNWYVDGVEVHNAKTKPREEQFNSTFRVVSVLTVVHQDWLNGKEYKCKVSNKGLPAPIEKTISKTKGQPREPQVCTLPPSRDELTKNQVSLSCAVKGFYPSDIAVEWESNGQPENNYKTTPPVLDSDGSFFLVSKLTVDKSRWQQGNVFSCSVMHEALHNHYTQKSLSLSPGK
heavy: EVKLDETGGGLVQPGRPMKLSCVASGFTFSDYWMNWVRQSPEKGLEWVAQIRNKPYNYETYYSDSVKGRFTISRDDSKSSVYLQMNNLRVEDMGIYYCTGSYYGMDYWGQGTSVTVSSASTKGPSVFPLAPSSKSTSGGTAALGCLVKDYFPEPVTVSWNSGALTSGVHTFPAVLQSSGLYSLSSVVTVPSSSLGTQTYICNVNHKPSNTKVDKKVEPKSCDKTHTCPPSPAPPVAGPSVFLFPPKPKDTLMISRTPEVTCVVVDVSHEDPEVQFNWYVDGVEVHNAKTKPREEQFNSTFRVVSVLTVVHQDWLNGKEYKCKVSNKGLPAPIEKTISKTKGQPREPQVYTLPPCRDELTKNQVSLWCLVKGFYPSDIAVEWESNGQPENNYKTTPPVLDSDGSFFLYSKLTVDKSRWQQGNVFSCSVMHEALHNHYTQKSLSLSPGK
light: B3 light
notes: 4420 Fab arm and anti-CD3 scFv (VH2a/VL5)-Fc fusion peptide, CH2 SG2; also called MS-hCD3-17

Experiments:
[1] = molecular target: T1, monkey CD3 (monkey); experiment: flow cytometry on monkey CD3 positive T cells
T1 construct: whole, on cells; also called CD3 on monkey CD3 positive T cells

[2] = molecular target: T2, human CD3 (human, UniProt P07766 23-207); experiment: flow cytometry on human CD3 positive T cells
T2 construct: whole, on cells; Assays used CD3 positive T cells (or CIK cells) from human blood; also called Human CD3ϵ; CD3 on human CD3 positive T cells

Binder	EC50 [1]	EC50 [2]
B1	159 nM	
B2	229 nM	
B3	154 nM	118 nM
B4	152 nM	
B5	142 nM	
B6	291 nM	
B7	174 nM	
B8	295 nM	170 nM
B9	296 nM	197 nM
B10	347 nM	
B11	102 nM	
B12	29.2 nM	
B13	161 nM	122 nM
B14	222 nM	122 nM

Source: patent US20220041721A1 (WUHAN YZY BIOPHARMA, published 2022)
